Laboratory results from publication PMC6719446 (The Journal of Cell Biology, 2019).

Molecular target: T1, Purified ASB11 bound on anti-Myc beads (human (ASB11 cDNA amplified from 293T …, UniProt Q8WXH4 1-323))
T1 sequence (looked up): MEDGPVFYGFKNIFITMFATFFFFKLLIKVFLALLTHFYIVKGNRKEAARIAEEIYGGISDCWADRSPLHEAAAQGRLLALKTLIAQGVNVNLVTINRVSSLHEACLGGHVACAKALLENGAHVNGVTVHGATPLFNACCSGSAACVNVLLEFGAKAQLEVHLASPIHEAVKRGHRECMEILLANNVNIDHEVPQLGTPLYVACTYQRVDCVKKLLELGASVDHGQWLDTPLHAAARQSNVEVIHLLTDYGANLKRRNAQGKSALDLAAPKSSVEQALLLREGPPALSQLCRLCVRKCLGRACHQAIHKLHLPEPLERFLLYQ
Experiment: pull-down

B1: 3xFlag-BIK (natural protein, UniProt Q13323 1-160, looked up)
chain: MSEVRPLSRDILMETLLYEQLLEPPTMEVLGMTDSEEDLDPMEDFDSLECMEGSDALALRLACIGDEMDVSLRAPRLAQLSEVAMHSLGLAFIYDQTEDIRDVLRSFMDGFTTLKENIMRFWRSPNPGSWVSCEQVLLALLLLLALLLPLLSGGLHLLLK
Q: Does B1 bind?
A: binds
